The source of these data is publication PMC8202330 (2021).

B1: MYC-SCOC (isoform 3) WT [human] / GFP-GABARAP [not stated] (parent complex)
chain 1: MDGSRKEEEEDSTFTNISLADDIDHSSRILYPRPKSLLPKMMNADMDVDAENQVELEEKTRLINQVLELQHTLEDLSARVDAVKEENLKLKSENQVLGQYIENLMSASSVFQTTDTKSKRK
chain 2: MKFVYKEEHPFEKRRSEGEKIRKKYPDRVPVIVEKAPKARIGDLDKKKYLVPSDLTVGQFYFLIRKRIHLRAEDALFFFVNNVIPPTSATMGQLYQEHHEEDFFLYIAYSDESVYGL

Variants of B1 are the subject of the assay. Description: GFP-Trap immunoprecipitation, Western blot quantification; HEK293A lysates mixed prior to IP; mean ± s.d.; n = 3; read off a plot.
Turning to chain 1 S12E, chain 1 T13E, chain 1 T15E, chain 1 S18E, the response was ~100 % binding. Take chain 1 S18E: the response is ~18 % binding.

chain 1 S12E, chain 1 T15E: the response is ~63 % binding.
